Assay results: US20150093386A1

What was measured:
Experiment in all cases: cell-based or functional assay
[1] = target: EGFR overexpressed on U87 MG EGFR cells (UniProt P00533)
[2] = target: EGFRvIII (EGFR with deletion of exons 2-7) on U87 MG-EGFRvIII cells (human) (UniProt P00533)
[3] = target: endogenous EGFR at low level on U87 MG cells (human) (UniProt P00533)

## humanized monoclonal antibody ch806
[1]
  EC50 values of cytotoxicity on MG-EGFR cells: 6.48 µM
  cytotoxicity % at 0.0002 nM, U87 MG EGFR cells with PBMC: 1.89%
  cytotoxicity % at 0.002 nM, U87 MG EGFR cells with PBMC: 0.61%
  cytotoxicity % at 0.02 nM, U87 MG EGFR cells with PBMC: 1.31%
  cytotoxicity % at 0.2 nM, U87 MG EGFR cells with PBMC: 0.37%
  cytotoxicity % at 2 nM, U87 MG EGFR cells with PBMC: 0.49%
  cytotoxicity % at 20 nM, U87 MG EGFR cells with PBMC: 4.92%
[2]
  EC50 values of cytotoxicity on U87 MG-EGFRvIII cells: 0.0408 µM
  cytotoxicity % at 0.0002 nM, U87 MG EGFRvIII cells with PBMC: 0.41%
  cytotoxicity % at 0.002 nM, U87 MG EGFRvIII cells with PBMC: 0.62%
  cytotoxicity % at 0.02 nM, U87 MG EGFRvIII cells with PBMC: 0.76%
  cytotoxicity % at 0.2 nM, U87 MG EGFRvIII cells with PBMC: 15.6%
  cytotoxicity % at 2 nM, U87 MG EGFRvIII cells with PBMC: 22.3%
  cytotoxicity % at 20 nM, U87 MG EGFRvIII cells with PBMC: 36.3%
[3]
  cytotoxicity % at 0.0002 nM, U87 MG cells with PBMC: 0.96%
  cytotoxicity % at 0.002 nM, U87 MG cells with PBMC: 0.71%
  cytotoxicity % at 0.02 nM, U87 MG cells with PBMC: 0.71%
  cytotoxicity % at 0.2 nM, U87 MG cells with PBMC: 0.07%
  cytotoxicity % at 2 nM, U87 MG cells with PBMC: 0.28%
  cytotoxicity % at 20 nM, U87 MG cells with PBMC: 4.18%
